Data taken from the supplement of paper PMC10065799, “High-throughput profiling of sequence recognition by tyrosine kinases and SH2 domains using bacterial peptide display” (eLife, 2023).

Tests used:
[1] = test system: AncSZ; experiment: phosphorylation enrichment, bacterial display (enrichment ratio); higher = better substrate or ligand; peptides without Tyr show the background
[2] = biological target: EPHB1 (UniProt P54762); experiment: as above
[3] = biological target: EPHB2 (UniProt P29323); experiment: as above
[4] = biological target: FGFR1 (UniProt P11362); experiment: as above
[5] = biological target: FGFR3 (UniProt P22607); experiment: as above
[6] = test system: Fer (mouse); experiment: as above
[7] = biological target: Fes (UniProt P07332); experiment: as above
[8] = biological target: Fyn (UniProt P06241); experiment: as above
[9] = biological target: Hck (UniProt P08631); experiment: as above
[10] = biological target: Jak2 (UniProt O60674); experiment: as above
[11] = biological target: MERTK (UniProt Q12866); experiment: as above
[12] = test system: c-Abl (mouse); experiment: as above
[13] = test system: c-Src; experiment: as above
[14] = biological target: Grb2 SH2 (UniProt P62993); experiment: SH2 binding enrichment of the phosphorylated peptide, bacterial display (enrichment ratio); higher = better substrate or ligand; peptides without Tyr show the background
[15] = biological target: SHP2-C SH2; experiment: as above
[16] = biological target: c-Src SH2; experiment: as above
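For SH2 binding enrichment of the phosphorylated peptide, bacterial display in this document: peptide library displayed on the E. coli surface as eCPX fusions, selected cells deep-sequenced, score is each peptide's frequency after selection divided by its frequency in the input.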
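For phosphorylation enrichment, bacterial display in this document: 11-residue human phosphosite peptides and single-mutation variants displayed on the E. coli surface, counted by deep sequencing, each peptide's frequency after selection divided by its frequency in the unselected input library; frequency after pTyr selection over input frequency; kinase dosed for 20-30% of maximal phosphorylation in three min.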

Sequence of Hck (P08631 whole entry, looked up): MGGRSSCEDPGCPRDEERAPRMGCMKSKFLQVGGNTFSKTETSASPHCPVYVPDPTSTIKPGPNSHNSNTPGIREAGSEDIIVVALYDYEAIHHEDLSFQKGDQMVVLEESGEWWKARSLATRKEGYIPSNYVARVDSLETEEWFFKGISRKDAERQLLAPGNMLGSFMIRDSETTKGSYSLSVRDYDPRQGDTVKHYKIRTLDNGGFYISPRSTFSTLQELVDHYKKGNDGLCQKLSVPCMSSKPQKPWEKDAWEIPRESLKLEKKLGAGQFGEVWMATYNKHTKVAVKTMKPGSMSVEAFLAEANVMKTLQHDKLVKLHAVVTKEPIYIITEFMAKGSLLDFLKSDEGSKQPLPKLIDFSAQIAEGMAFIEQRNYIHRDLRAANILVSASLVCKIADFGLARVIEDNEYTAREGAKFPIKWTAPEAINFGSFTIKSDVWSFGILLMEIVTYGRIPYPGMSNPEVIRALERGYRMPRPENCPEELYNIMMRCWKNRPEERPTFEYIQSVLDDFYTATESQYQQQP
Sequence of Fes (P07332 whole entry, looked up): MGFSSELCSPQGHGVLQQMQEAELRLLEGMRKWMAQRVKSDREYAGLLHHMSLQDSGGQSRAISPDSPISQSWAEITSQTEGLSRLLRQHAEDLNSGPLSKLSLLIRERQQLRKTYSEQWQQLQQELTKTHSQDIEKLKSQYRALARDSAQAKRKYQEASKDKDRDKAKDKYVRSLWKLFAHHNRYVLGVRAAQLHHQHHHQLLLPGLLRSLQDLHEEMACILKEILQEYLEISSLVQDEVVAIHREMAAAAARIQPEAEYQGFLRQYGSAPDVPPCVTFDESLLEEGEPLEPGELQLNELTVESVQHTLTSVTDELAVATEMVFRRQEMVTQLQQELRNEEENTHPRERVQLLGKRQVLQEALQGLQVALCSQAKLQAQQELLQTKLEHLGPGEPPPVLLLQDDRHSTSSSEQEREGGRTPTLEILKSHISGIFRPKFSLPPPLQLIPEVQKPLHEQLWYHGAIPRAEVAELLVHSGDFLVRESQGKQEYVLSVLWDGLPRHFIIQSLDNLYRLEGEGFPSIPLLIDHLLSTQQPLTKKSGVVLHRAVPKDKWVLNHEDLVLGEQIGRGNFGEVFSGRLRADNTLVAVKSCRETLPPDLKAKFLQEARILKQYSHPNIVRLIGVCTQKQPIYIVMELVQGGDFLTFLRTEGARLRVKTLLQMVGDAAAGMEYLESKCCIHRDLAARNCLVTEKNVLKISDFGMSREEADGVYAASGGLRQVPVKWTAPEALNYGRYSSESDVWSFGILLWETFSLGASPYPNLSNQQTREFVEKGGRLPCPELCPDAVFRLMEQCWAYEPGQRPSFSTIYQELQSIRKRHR
Sequence of EPHB2 (P29323 whole entry, looked up): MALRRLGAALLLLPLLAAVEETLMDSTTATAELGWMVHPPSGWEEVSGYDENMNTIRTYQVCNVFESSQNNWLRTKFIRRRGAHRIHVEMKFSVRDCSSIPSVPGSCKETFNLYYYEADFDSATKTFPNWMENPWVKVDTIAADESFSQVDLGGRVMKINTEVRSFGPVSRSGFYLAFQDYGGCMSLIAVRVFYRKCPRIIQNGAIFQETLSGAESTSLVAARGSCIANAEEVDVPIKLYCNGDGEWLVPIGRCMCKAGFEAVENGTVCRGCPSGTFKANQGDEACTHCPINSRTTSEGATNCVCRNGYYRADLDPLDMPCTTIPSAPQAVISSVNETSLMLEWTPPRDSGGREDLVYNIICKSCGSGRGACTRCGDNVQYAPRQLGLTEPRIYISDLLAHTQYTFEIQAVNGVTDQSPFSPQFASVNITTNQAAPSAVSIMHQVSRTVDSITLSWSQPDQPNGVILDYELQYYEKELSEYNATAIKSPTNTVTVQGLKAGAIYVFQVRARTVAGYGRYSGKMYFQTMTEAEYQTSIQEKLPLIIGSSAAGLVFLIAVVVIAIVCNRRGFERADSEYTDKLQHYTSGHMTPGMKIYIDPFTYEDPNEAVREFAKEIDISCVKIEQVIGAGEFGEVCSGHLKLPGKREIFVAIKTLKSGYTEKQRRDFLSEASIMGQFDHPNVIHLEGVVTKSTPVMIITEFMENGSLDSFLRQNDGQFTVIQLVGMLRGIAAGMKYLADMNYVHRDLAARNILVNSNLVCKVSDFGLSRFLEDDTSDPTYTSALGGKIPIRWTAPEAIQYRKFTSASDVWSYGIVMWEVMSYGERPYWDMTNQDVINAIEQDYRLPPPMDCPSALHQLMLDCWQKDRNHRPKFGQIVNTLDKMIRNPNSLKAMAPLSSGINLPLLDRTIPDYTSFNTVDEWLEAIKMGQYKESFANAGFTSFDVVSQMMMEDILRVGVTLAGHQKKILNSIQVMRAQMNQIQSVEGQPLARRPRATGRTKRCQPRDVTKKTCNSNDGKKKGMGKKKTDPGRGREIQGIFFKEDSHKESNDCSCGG
Sequence of FGFR3 (P22607 whole entry, looked up): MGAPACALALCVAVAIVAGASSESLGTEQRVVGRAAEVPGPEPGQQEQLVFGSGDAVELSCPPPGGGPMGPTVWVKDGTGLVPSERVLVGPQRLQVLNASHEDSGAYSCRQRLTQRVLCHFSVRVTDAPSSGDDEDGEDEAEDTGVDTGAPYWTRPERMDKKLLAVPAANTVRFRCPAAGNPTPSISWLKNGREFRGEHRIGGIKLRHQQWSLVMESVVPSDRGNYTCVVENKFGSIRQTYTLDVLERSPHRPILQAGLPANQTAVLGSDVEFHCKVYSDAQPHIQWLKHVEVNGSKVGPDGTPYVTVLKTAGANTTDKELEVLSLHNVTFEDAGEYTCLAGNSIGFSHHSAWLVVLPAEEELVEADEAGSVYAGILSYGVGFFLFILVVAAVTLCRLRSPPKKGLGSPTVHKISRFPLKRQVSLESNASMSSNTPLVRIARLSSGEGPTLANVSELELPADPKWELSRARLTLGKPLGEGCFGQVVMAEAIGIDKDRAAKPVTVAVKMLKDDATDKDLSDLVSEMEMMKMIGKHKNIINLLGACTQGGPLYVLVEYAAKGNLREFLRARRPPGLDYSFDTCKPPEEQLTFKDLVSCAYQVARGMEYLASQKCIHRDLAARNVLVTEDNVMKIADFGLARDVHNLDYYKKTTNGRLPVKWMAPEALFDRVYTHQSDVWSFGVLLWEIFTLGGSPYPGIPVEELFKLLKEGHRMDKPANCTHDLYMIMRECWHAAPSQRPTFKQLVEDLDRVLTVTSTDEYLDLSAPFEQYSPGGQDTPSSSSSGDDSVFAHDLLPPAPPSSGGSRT
Sequence of Fyn (P06241 whole entry, looked up): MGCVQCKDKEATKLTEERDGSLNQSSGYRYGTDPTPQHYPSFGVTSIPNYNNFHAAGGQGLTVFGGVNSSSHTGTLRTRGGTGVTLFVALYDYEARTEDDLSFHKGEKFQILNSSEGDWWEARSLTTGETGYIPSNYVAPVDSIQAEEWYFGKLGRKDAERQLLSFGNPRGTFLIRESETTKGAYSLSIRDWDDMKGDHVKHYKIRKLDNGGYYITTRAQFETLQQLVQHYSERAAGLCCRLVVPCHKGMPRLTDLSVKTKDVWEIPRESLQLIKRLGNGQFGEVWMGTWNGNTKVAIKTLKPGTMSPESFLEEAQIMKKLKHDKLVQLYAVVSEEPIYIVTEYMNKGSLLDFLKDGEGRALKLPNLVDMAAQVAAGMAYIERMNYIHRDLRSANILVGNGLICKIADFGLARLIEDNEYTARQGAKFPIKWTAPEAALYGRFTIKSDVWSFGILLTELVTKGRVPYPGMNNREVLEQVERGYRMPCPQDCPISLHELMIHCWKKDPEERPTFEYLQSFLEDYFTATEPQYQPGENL
Sequence of Jak2 (O60674 whole entry, looked up): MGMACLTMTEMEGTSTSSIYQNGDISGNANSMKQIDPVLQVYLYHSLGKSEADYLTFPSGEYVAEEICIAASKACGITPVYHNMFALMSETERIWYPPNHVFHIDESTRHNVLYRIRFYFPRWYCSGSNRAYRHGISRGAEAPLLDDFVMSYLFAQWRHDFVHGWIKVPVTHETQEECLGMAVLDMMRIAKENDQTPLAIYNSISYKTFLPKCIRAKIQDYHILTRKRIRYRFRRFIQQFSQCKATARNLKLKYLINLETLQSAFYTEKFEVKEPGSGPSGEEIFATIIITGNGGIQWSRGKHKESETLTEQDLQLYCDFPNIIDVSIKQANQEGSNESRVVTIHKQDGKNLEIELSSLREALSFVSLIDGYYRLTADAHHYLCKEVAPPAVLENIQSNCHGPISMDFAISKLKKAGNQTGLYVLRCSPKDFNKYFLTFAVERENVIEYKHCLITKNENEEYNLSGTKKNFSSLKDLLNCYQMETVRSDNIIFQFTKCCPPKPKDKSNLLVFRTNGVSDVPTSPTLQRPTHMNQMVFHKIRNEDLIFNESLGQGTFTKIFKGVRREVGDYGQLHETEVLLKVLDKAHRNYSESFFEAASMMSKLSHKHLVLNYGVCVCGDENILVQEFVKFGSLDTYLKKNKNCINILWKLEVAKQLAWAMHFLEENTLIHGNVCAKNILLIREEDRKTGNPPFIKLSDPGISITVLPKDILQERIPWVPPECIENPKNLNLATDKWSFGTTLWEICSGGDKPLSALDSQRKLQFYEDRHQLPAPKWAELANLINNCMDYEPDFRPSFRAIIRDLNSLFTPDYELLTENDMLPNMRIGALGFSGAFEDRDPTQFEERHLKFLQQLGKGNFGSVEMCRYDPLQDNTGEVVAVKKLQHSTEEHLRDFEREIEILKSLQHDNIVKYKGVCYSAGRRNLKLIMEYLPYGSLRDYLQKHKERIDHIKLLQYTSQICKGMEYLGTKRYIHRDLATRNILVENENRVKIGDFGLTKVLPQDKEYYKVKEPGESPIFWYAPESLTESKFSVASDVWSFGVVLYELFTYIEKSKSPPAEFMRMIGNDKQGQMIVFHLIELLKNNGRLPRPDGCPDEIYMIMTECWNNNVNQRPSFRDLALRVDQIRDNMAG

SH2 binding enrichment [14]	SH2 binding enrichment [15]	SH2 binding enrichment [16]	Sequence	phosphorylation enrichment [1]	phosphorylation enrichment [2]	phosphorylation enrichment [3]	phosphorylation enrichment [4]	phosphorylation enrichment [5]	phosphorylation enrichment [6]	phosphorylation enrichment [7]	phosphorylation enrichment [8]	phosphorylation enrichment [9]	phosphorylation enrichment [10]	phosphorylation enrichment [11]	phosphorylation enrichment [12]	phosphorylation enrichment [13]
0.714	0.674	0.437	DAVCFYRMENA [NPHS2_Y195_I192V_YF]	1.21	0.698	0.685	0.698	1.06	0.614	1.23	0.986	0.788	1.22	0.695	0.882	3.07
0.833	0.64	0.418	DDHFTYSRFPW [LY75_Y888_YF]	1.16	4.84	5.18	0.905	0.797	0.609	1.07	4.83	6.66	1.28	3.18	1.66	4.98
0.842	0.799	0.521	DEEFEYMNRRR [ERBB3_Y1199_YF]	1.3	0.481	0.66	0.591	0.612	0.474	1.18	0.643	0.497	1.01	0.597	0.688	0.564
0.67	0.461	0.453	DFEGLYQEGGG [TMEM159_Y159_E154D]	1.23	0.746	0.791	0.761	0.817	0.64	1.17	0.874	1.22	0.88	0.453	0.569	0.923
0.64	0.544	0.381	DGTVHYVDEKG [IFT140_Y216]	1.02	0.666	0.682	0.592	0.83	0.593	1.23	0.671	0.586	0.832	0.443	0.653	0.376
0.825	1.11	0.506	DHAGEYGAEAL [HBA1_Y25_A20D]	0.86	0.426	0.569	0.509	0.621	0.403	0.892	0.427	0.495	0.675	0.343	0.546	0.405
0.826	0.657	0.483	DHPSEYAARQL [ANXA13_Y90_R86H]	0.657	0.352	0.494	0.496	0.445	0.365	0.633	0.454	0.525	0.576	0.453	0.66	0.482
0.887	0.608	0.565	DKATEYIQFMR [MAX_Y70_YF]	1	0.528	0.549	0.589	0.655	0.439	1.01	0.675	0.69	0.793	0.439	0.803	0.703
0.938	1.4	0.469	DKATEYIQYMR [MAX_Y70]	0.852	0.448	0.451	0.479	0.572	0.394	0.622	0.624	0.504	0.625	0.4	0.499	0.486
0.664	0.54	0.44	DKGTLYIAEQI [PLBD1_Y375_V377A]	0.763	0.565	0.446	0.441	0.666	0.372	0.887	0.459	0.447	0.743	0.346	0.65	0.383
0.924	0.522	0.474	DKTGEYPVPLT [ACADM_Y73_I78T]	0.863	0.502	0.438	0.426	0.578	0.397	0.902	0.487	0.382	0.649	0.44	0.57	0.448
0.897	0.594	0.361	DLGIQYKALKP [CTNNA1_Y177]	0.754	0.568	0.442	0.507	0.631	0.498	0.853	0.388	0.485	0.725	0.453	0.573	0.449
0.882	0.763	0.485	DLLMQYPKAQG [FAM83C_Y600]	0.812	0.498	0.301	0.341	0.467	0.452	0.543	0.385	0.364	0.496	0.356	0.491	0.352
0.902	0.682	0.505	DLQDEYDFKRK [STAT1_Y170_C174R]	0.992	0.495	0.54	0.472	0.643	0.463	1.16	0.465	0.472	0.916	0.355	0.588	0.476
0.987	1.32	3.02	DPHECYAKVFD [ALB_Y394]	1.11	0.593	0.591	0.506	0.749	0.584	1.14	0.488	0.582	0.88	0.42	0.692	0.665
0.991	1.19	0.574	DPLLTYLFPPK [LMNA_Y481_R482L]	2.2	0.992	0.781	4.35	2.62	0.481	1.08	1.8	0.87	2.79	0.772	0.836	3.12
0.874	0.59	0.419	DRLASYLDKAR [KRT14_Y129_V133A]	0.586	0.297	0.324	0.37	0.45	0.403	0.634	0.373	0.342	0.627	0.378	0.914	0.349

SH2 binding enrichment [14]	SH2 binding enrichment [15]	SH2 binding enrichment [16]	Sequence	phosphorylation enrichment [1]	phosphorylation enrichment [2]	phosphorylation enrichment [3]	phosphorylation enrichment [4]	phosphorylation enrichment [5]	phosphorylation enrichment [6]	phosphorylation enrichment [7]	phosphorylation enrichment [8]	phosphorylation enrichment [9]	phosphorylation enrichment [10]	phosphorylation enrichment [11]	phosphorylation enrichment [12]	phosphorylation enrichment [13]
1.03	0.529	0.488	DRLASYLDKMR [KRT17_Y98_V102M]	0.697	0.376	0.467	0.483	0.513	0.436	0.912	0.751	0.473	0.667	0.45	0.606	0.459
0.848	0.626	0.507	DRLASYLDKVR [KRT10_Y160]	0.619	0.4	0.429	0.435	0.471	0.336	0.643	0.378	0.454	0.533	0.379	0.519	0.345
0.875	0.631	0.487	DSGRDYVSQFE [APOA1_Y53]	0.914	0.685	0.492	0.462	0.673	0.478	0.922	0.489	0.529	0.665	0.409	0.601	0.403
0.707	0.953	0.414	DTFDPYLDVAL [USP36_Y268_YF]	1.18	0.641	0.622	0.658	0.857	1.52	1.24	0.704	0.701	1.25	0.557	0.833	0.712
20.8	1.65	3.29	DTKPVYQNLRQ [BOD1_Y82_A81V]	0.596	0.549	0.44	0.511	0.456	0.507	0.752	1.07	1.29	0.621	0.533	0.708	1.07
0.867	0.918	0.595	DTQNSYGCATS [TSC1_Y304]	0.7	0.432	0.445	0.422	0.707	0.483	0.834	0.433	0.498	0.489	0.393	0.884	0.555
1.01	0.849	0.884	DTQNSYWCATS [TSC1_Y304_G305W]	0.952	0.535	0.456	1.07	0.832	0.405	0.916	0.485	0.518	0.805	1.36	0.633	0.52
0.823	0.608	0.472	DVVKDYAFVHM [RBM14_Y114]	0.929	7.47	5.38	3.87	2.45	2.58	0.933	0.419	0.435	0.661	0.574	0.659	0.466
0.587	0.582	1	DYTEAYNSKIK [CLK1_Y305_P307S]	0.897	0.446	0.449	0.514	0.585	0.377	0.969	0.339	0.382	0.965	0.454	0.584	0.492
0.713	1.41	1.02	EALSLYTKLMN [STAM_Y371]	1.39	0.615	0.639	0.391	0.856	0.509	1.48	0.402	0.505	1.49	0.411	0.832	0.551
0.815	0.6	0.598	EATKGHLDDPT [G6PD_Y322_Y322H]	0.851	0.643	0.488	0.467	0.664	0.55	1.04	0.584	0.496	0.856	0.448	0.821	0.453
0.837	0.746	0.534	EATKVYLDDPT [G6PD_Y322_G321V]	0.852	0.482	0.558	0.428	0.656	0.451	0.967	0.444	0.458	0.803	0.385	0.656	0.357
0.995	0.711	0.717	ECKHLYSRKEG [PTPN11_Y263_L261H]	0.451	0.406	0.285	0.463	0.397	0.4	0.579	0.407	0.329	0.419	0.388	0.458	0.388
0.838	0.587	0.506	EDDPEYMRLRN [ADD2_Y31]	1.2	0.674	0.594	0.785	0.887	0.589	1.17	0.601	0.724	1.12	0.414	0.823	0.509
0.776	0.628	0.472	EDEGLYMVRVP [MYOM3_Y343]	1.58	1.74	1.71	0.56	0.736	1.89	1.43	3.03	4.63	1.24	1.79	0.812	3.41
0.951	0.739	0.542	EDKFMYSEFPQ [PTEN_Y240_F241S]	1.51	0.771	1.05	1.49	1.45	0.734	1.21	1.25	2.07	1.14	2.02	1.03	2.91
